The target of one assay is T1, BAM1 LRR ectodomain (Arabidopsis thaliana, UniProt O49545).
T1 construct: BAM1 (residues 20–637, AT5G65700); azurocidin or Drosophila BIP signal peptide (secretion signal) (N); made in house; host or cells: Trichoplusia ni Tnao38 insect cells (baculovirus)
T1 sequence (O49545 20-637): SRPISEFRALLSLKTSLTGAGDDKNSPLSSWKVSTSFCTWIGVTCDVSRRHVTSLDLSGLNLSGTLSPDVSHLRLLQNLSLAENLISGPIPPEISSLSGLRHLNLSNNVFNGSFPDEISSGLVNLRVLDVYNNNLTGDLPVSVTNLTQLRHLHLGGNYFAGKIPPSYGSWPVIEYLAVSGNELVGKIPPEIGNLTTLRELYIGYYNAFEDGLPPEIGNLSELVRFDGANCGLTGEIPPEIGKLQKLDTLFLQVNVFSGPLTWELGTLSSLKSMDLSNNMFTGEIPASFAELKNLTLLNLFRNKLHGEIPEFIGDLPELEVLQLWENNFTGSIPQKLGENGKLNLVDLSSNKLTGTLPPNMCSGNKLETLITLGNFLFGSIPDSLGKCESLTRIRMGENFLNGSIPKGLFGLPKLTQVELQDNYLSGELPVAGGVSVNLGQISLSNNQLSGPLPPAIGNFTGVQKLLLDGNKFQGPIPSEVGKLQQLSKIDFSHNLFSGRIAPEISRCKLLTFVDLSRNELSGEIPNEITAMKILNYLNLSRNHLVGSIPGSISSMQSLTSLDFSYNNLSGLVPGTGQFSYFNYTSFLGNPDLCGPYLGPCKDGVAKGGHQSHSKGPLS
Kind of assay: ITC, peptide titrated into BAM1 ectodomain. It is filed as binding. The conditions noted are these: ITC, 25 °C, mean ± SD of at least two independent experiments; for ΔH, peptide vs BAM1: peptide into BAM1 ectodomain, pH 5.0; for Kd (dissociation constant), peptide vs BAM1: peptide into BAM1 ectodomain (cell), 20 mM sodium citrate pH 5.0, 150 mM NaCl, N fitted to 1, n.d = no binding detected. The source says:
All genes used for protein expression in Trichoplusia ni Tnao38 cells[46] were codon optimized and cloned into a modified pFastBac vector (Geneva Biotech) providing an azurocidin[47] or Drosophila BIP signal peptide, a TEV (tobacco etch virus protease) cleavage site and a Strep-9xHis tandem affinity tag at their carboxy terminus. The genes used are coding for the Arabidopsis ectodomains of HSL1 (residues 17-618, AT1G28440), HAE (residues 20-620, AT4G28490) SERK1 (residues 24–213, AT1G71830), and BAM1 (residues 20–637, AT5G65700). To perform Grating-coupled interferometry (GCI) experiments, HSL1 was fused to a non-cleavable Avi-tag[49],[50]. Baculovirus generation was carried out in DH10 cells and virus amplification was done in Spodoptera frugiperda Sf9 cells. For protein expression, Trichoplusia ni Tnao38 cells were infected with HAE, HSL1, BAM1 and SERK1 virus with a multiplicity of infection (MOI) of 3. The cells were grown 1 day at 28 °C and two days at 22 °C at 110 rpm. After every expression round, secretion of our proteins was detected using an anti-His-HRP conjugated antibody from Roche (Ref:11965085001) in a 1:2000 dilution. […] Next, affinity tags were removed by incubating the purified proteins with recombinant His-tagged TEV protease, in a 1:50 ratio. The cleaved tag and the protease were separated from the ectodomains by a second Ni^2+ affinity step. Proteins were further purified by size-exclusion chromatography on a Superdex 200 Increase 10/300 GL column (GE Healthcare) equilibrated in 20 mM citric acid pH 5.0, 150 mM NaCl. Peak fractions containing the single proteins or complexes were concentrated using Amicon Ultra concentrators (Millipore, MWCO 10,000 for SERK1 and 30,000 for HAE, HSL1, and BAM1) and used for crystallization or biochemical experiments. Proteins were analyzed for purity and structural integrity by SDS-PAGE.
Experiments were performed at 25 °C using a MicroCal PEAQ-ITC (Malvern Instruments) with a 200 µL standard cell and a 40 μL titration syringe. HSL1, BAM1, and SERK1 proteins were gel-filtrated into the ITC buffer (20 mM sodium citrate pH 5.0, 150 mM NaCl). Molar protein concentrations for HSL1, BAM1, and SERK1 were calculated using their molar extinction coefficient and a molecular weight of 74,896 and 27,551 Da, respectively as previously determined. A typical experiment consisted of injecting 2 μL of a range between 75 and 600 μM solution of ligand into 10 to 30 μM HAE, HSL1, or BAM1 solution in the cell at 150 s intervals and 500 rpm stirring speed. The SERK1 vs HAE/HSL1-peptide experiments were performed by titrating 100 µM SERK1 in the cell, using the same injection pattern. ITC data were corrected for the heat of dilution by subtracting the mixing enthalpies for titrant solution injections into protein-free ITC buffer. Experiments were done in duplicates or triplicates, otherwise specified, and data were analyzed using the MicroCal PEAQ-ITC Analysis Software provided by the manufacturer. […] The N values were fitted to 1 in the analysis.

In assay [1] the target is T2, BAM1 (BARELY ANY MERISTEM 1) ectodomain (Arabidopsis, UniProt O49545 20-637).
T2 chain: T1 sequence (O49545 20-637)
The assay can be described thus: ITC. On the technique in general: ITC needs no label: the signal is the heat of the interaction.

Assay [2] addresses T3, HSL1 (HAESA-LIKE 1) ectodomain (Arabidopsis, UniProt Q9SGP2 17-618).
T3 chain: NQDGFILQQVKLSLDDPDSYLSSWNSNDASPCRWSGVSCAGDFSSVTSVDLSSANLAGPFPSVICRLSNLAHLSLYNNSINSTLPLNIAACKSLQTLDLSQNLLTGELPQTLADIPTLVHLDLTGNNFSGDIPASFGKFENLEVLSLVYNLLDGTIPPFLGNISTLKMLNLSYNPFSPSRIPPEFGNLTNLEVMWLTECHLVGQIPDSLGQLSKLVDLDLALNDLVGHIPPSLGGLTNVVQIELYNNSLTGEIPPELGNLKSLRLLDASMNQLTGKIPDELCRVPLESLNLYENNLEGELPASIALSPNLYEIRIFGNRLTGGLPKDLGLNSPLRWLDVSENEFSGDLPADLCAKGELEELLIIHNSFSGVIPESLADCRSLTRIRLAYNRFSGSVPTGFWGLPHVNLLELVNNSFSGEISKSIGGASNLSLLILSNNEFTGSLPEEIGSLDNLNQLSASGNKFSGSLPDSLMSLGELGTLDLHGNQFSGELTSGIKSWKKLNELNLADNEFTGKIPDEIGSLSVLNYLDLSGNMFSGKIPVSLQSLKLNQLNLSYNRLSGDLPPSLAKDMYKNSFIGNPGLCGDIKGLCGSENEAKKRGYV
Kind of assay: ITC.

In assay [3] the target is T4, biotinylated HSL1 ectodomain with Avi-tag (Arabidopsis, UniProt Q9SGP2 17-618, biotin on the Avi-tag (BirA)).
T4 chain: T3 chain
Kind of assay: GCI.

Assay [4] concerns the target T4, biotinylated HSL1 ectodomain with ….
Assay [5] shares this target.
Assay [6] shares this target. Kind of assay: GCI.

The text below walks through data of paper PMC8847575, “HSL1 and BAM1/2 impact epidermal cell development by sensing distinct signaling peptides” (Nature Communications, 2022).

“And” between values parts separate entries of the source, which are not always exact repeats. Equal values may be shown once. Read-outs that look alike come from different tables or passages of the source. Square brackets hold non-standard residues; d marks the D form. Ends that are not written are not given here. Peptide text beside a SMILES is read from it. Hyp = O=C(O)[C@@H]1C[C@@H](O)CN1

For `CC[C@H](C)[C@H](NC(=O)[C@@H]1CCCN1)C(=O)N[C@H](C(=O)N1CCC[C@H]1C(=O)N[C@@H](CO)C(=O)NCC(=O)N1C[C@H](O)C[C@H]1C(=O)N[C@@H](CC(N)=O)C(=O)N1CCC[C@H]1C(=O)N[C@@H](CC(C)C)C(=O)N[C@@H](Cc1c[nH]cn1)C(=O)N[C@@H](CC(N)=O)C(=O)O)C(C)C` [CLE9^R109PL110I] (H-PIVPSG[Hyp]NPLHN-OH), at BAM1 LRR ectodomain, the “ΔH, peptide vs BAM1” value is -27 ± 11 kcal/mol. For `CC[C@H](C)[C@H](NC(=O)[C@@H]1CCCN1)C(=O)N1CCC[C@H]1C(=O)N1CCC[C@H]1C(=O)N[C@@H](CO)C(=O)NCC(=O)N1C[C@H](O)C[C@H]1C(=O)N[C@@H](CC(N)=O)C(=O)N1CCC[C@H]1C(=O)N[C@@H](CC(C)C)C(=O)N[C@@H](Cc1c[nH]cn1)C(=O)N[C@@H](CC(N)=O)C(=O)O` [CLE9^R109PL110IV111P] (H-PIPPSG[Hyp]NPLHN-OH), at BAM1 LRR ectodomain, the “Kd (dissociation constant), peptide vs BAM1” value is recorded as “non-detectable binding”. For the molecule `CC(C)C[C@H](NC(=O)[C@@H]1CCCN1C(=O)[C@H](CC(N)=O)NC(=O)[C@@H]1C[C@@H](O)CN1C(=O)CNC(=O)[C@H](CO)NC(=O)[C@@H]1CCCN1C(=O)[C@@H]1CCCN1C(=O)[C@H](CC(C)C)NC(=O)[C@@H](N)CCCNC(=N)N)C(=O)N[C@@H](Cc1c[nH]cn1)C(=O)N[C@@H](CC(N)=O)C(=O)O` [CLE9^V111P] (H-RLPPSG[Hyp]NPLHN-OH), the “ΔH, peptide vs BAM1” value at BAM1 LRR ectodomain is -19 ± 8.3 kcal/mol. Still for that read-out and setting: the figure for `CC(C)C[C@H](NC(=O)[C@@H]1CCCN1C(=O)[C@H](CC(N)=O)NC(=O)[C@@H]1C[C@@H](O)CN1C(=O)CNC(=O)[C@H](CO)NC(=O)[C@@H]1CCCN1C(=O)[C@@H]1CCCN1C(=O)[C@H](CC(C)C)NC(=O)[C@@H]1CCCN1)C(=O)N[C@@H](Cc1c[nH]cn1)C(=O)N[C@@H](CC(N)=O)C(=O)O` [CLE9^R109PV111P] (H-PLPPSG[Hyp]NPLHN-OH) is -3.7 ± 0.4 kcal/mol; for `CC(C)C[C@H](NC(=O)[C@@H]1CCCN1)C(=O)N[C@H](C(=O)N1CCC[C@H]1C(=O)N[C@@H](CO)C(=O)NCC(=O)N1C[C@H](O)C[C@H]1C(=O)N[C@@H](CC(N)=O)C(=O)N1CCC[C@H]1C(=O)N[C@@H](CC(C)C)C(=O)N[C@@H](Cc1c[nH]cn1)C(=O)N[C@@H](CC(N)=O)C(=O)O)C(C)C` [CLE9^R109P] (H-PLVPSG[Hyp]NPLHN-OH) it is -26 ± 8 kcal/mol.

Turning to `CC(C)C[C@H](NC(=O)[C@@H](N)CCCNC(=N)N)C(=O)N[C@H](C(=O)N1CCC[C@H]1C(=O)N[C@@H](CO)C(=O)N[C@@H](C)C(=O)N1C[C@H](O)C[C@H]1C(=O)N[C@@H](CO)C(=O)N[C@@H](CCCCN)C(=O)N[C@@H](CCCNC(=N)N)C(=O)N[C@@H](Cc1c[nH]cn1)C(=O)N[C@@H](CC(N)=O)C(=O)O)C(C)C` [IDA^P58RI59LP60V] (H-RLVPSA[Hyp]SKRHN-OH), on BAM1 LRR ectodomain, the “Kd (dissociation constant), peptide vs BAM1” value is given as “restore binding to BAM1”. As for PLVPSGPNPLHN [CLE9 variant with the first residue substituted by the corresponding one of IDA], in assay [1], the Kd came out at 91 nM. The same measure, in the same setting: the figure for PLPPSGPNPLHN (also: Hyp112 and Hyp115 presumed as in wild-type) [CLE9^R109PV111P] is 2240 nM. In assay [2], YVPVPASGPSRKHN (also: conserved central hydroxyproline, position not given here) [IDL2 (IDA-LIKE 2) mature peptide] had a Kd of 121 nM. With PVPASAPSRKHN [IDL4 (IDA-LIKE 4) mature peptide], the dissociation rate constant (koff) in assay [3] is 0.65 s⁻¹; in assay [5], 0.52 s⁻¹ and 0.75 s⁻¹. For the same molecule, the Kd in assay [4] is 2700 nM and 1000 nM; in assay [6], 1850 nM; in assay [2], 2020 nM. Molecule RLVPSAPSKRHN [IDA^P58RI59LP60V peptide] yielded a Kd in assay [1] of 980 nM. This lies in the sub-micromolar range.

B1: IDA (INFLORESCENCE DEFICIENT IN ABSCISSION) mature peptide (peptide)
chain: YVPIPPSAPSKRHN
modifications: also: hydroxyproline at Pro64 (precursor numbering), position in chain not settled
For the molecule B1, the off-rate constant (koff) is 0.127 s⁻¹ in assay [3]; 0.15 s⁻¹ and 0.12 s⁻¹ in assay [5]. Besides, the Kd was 655 nM and 422 nM in assay [4]; 580 nM in assay [6]; 400 nM in assay [2].

B2: IDL3 (IDA-LIKE 3) mature peptide (peptide)
chain: PVPTSGPSRKHN
modifications: not fully specified; also: conserved central hydroxyproline, position not given here
Consider B2, for which the koff in assay [3] was 0.55 s⁻¹; in assay [5] it was 0.59 s⁻¹ and 0.49 s⁻¹. Further, the Kd in assay [4] is 608 nM and 1000 nM; in assay [6] it was 800 nM; in assay [2] it was 690 nM.

B3: IDL1 (IDA-LIKE 1) mature peptide (peptide)
chain: YVLVPPSGPSMRHN
modifications: not fully specified; also: conserved central hydroxyproline, position not given here
B3 yielded an equilibrium dissociation constant (Kd) in assay [2] of 590 nM.

In general, Kd refers to the constant that tells how readily two partners part at equilibrium. High values mean lower affinity, low ones higher affinity. For orientation: koff means the rate constant with which the complex falls apart. Read a high koff as a short-lived complex.
